Assay results taken from patent US20240174736A1 (STARMAB BIOLOGICS SUZHOU, published 2024).

B1: 2E5 mouse/human chimeric antibody (2E5HL) (antibody, human IgG1, kappa, V domains shown)
VH: EVKVEESGGGSVQPGGSMKLSCVASGYTFGDNWMNWVRQSPEKGLEWVAEIRLKSNNYATRYAESVKGRFTISRDDSKSSVYLQMNNLRTEDTGIYYCTRTQFITSVVAPFDFWGQGTTLTVSS
VL: not shown
notes: also called 2E5HL human-mouse chimeric antibody; c2E5VHCH/c2E5VLCL
B2: humanized antibody 2E5H3L0 (antibody, human IgG1, kappa, V domains shown)
VH: EVQLVESGGGLVQPGGSLKLSCAASGYTFGDNWMNWVRQASGKGLEWVGEIRLKSNNYATRYAESVKGRFTISRDDSKNTVYLQMNSLKTEDTAVYYCTRTQFITSVVAPFDFWGQGTTVTVSS
VL: not shown
notes: also called 2E5H3L0 humanized antibody; hu2E5VH3CH/hu2E5VL0CL

Key:
[1] = target: T1, attenuated PLY mut recombinant protein (pneumolysin with alanine 146 deleted) (Streptococcus pneumoniae, UniProt Q04IN8 1-471); test: ELISA, PLYmut coated at 0.1 µg/well, antibody in 2-fold dilutions, HRP goat anti-human IgG
T1 construct: The change is a deletion of A146, not a substitution ('-' under new means deleted); Expressed in E. coli BL21 (DE3) plysS with a C-terminal His tag; also called PLYmut protein; PLY mut antigen; not shown: C-terminal His tag

[2] = target: pneumolysin (PLY) recombinant protein (Streptococcus pneumoniae, UniProt Q04IN8 1-471)

Binder | EC50 [1] [µg/mL] | EC50 [2] [µg/mL]
B1 | 0.0158 | 0.0171
B2 | 0.0162 | 0.0203
